Reference: publication PMC3975505

Biological target: lnkH2B-H2A.Z (linked H2B-H2A.Z, single polypeptide chain) (human) (UniProt Q16778)
Assay: AUC

stoichiometry N: 1
Binder: EEEEEEEEEDEDEDEDEDEAGSELGEGEEEVGLSYLMKEEIQDEEDD (domain or fragment) [Anp32e_(186-232)]
